Measurements taken from article doi:10.1101/2024.10.02.616340 (bioRxiv, 2024).

What was measured:
[1] = biological target: yeast Mcm3 (subunit of CMG) (budding yeast, UniProt P24279 1-971); test: cryo-EM structure
[2] = biological target: T1, yeast Mcm4 (subunit of CMG) (budding yeast, UniProt P30665 1-933); test: cryo-EM structure
T1 sequence: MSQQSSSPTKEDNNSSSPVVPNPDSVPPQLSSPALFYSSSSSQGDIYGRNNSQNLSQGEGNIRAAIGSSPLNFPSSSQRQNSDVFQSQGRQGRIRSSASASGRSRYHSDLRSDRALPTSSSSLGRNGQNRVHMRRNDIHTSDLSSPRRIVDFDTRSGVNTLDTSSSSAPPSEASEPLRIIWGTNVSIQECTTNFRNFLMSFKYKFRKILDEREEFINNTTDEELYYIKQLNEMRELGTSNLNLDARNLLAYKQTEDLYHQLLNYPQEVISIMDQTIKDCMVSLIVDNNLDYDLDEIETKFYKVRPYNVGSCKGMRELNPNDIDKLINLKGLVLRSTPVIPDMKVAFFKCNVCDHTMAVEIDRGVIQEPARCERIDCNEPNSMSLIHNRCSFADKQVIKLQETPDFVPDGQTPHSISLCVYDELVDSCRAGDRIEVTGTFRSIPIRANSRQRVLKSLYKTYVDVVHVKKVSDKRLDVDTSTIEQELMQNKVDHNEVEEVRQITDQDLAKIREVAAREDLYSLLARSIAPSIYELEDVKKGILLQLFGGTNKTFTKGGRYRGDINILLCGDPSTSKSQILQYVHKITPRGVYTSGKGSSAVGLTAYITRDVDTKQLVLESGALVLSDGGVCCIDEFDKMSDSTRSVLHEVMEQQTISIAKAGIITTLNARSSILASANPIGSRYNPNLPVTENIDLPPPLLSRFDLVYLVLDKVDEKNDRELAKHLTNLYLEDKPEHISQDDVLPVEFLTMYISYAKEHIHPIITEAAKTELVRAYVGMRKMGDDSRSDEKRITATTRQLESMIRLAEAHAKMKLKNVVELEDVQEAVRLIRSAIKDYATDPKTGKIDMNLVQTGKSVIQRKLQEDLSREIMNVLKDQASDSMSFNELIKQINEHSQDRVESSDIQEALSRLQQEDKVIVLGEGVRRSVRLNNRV

yeast Mcm3 (subunit of CMG), sequence (P24279 whole entry): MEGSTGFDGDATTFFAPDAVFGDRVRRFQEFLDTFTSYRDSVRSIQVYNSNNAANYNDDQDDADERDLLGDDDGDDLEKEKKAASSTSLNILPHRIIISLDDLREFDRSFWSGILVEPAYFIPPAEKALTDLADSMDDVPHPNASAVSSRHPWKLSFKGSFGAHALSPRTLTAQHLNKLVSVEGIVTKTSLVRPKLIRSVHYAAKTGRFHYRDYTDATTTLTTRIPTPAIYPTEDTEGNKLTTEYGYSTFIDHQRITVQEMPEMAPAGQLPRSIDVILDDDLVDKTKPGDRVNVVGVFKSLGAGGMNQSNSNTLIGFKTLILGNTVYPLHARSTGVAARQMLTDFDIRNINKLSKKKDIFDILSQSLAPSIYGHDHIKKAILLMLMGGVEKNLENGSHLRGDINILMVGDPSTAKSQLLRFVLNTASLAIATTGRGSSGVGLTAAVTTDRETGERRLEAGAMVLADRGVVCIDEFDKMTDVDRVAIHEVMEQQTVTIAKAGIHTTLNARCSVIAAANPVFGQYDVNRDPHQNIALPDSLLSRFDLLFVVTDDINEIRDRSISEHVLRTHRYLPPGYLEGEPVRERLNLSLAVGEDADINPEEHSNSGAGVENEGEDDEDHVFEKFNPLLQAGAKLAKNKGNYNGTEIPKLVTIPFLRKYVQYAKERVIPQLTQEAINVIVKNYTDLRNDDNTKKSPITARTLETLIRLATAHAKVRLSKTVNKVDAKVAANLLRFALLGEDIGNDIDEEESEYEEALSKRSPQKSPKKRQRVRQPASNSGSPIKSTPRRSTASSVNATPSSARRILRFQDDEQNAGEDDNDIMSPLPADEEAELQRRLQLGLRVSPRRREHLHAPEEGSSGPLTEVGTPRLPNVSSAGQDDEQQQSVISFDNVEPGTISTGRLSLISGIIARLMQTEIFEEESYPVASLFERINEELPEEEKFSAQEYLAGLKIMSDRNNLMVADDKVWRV

B1: yeast Mcm7 (subunit of CMG) (natural protein)
chain: MSAALPSIQLPVDYNNLFNEITDFLVTFKQDTLSSDATRNENEDENLDAENIEQHLLEKGPKYMAMLQKVANRELNSVIIDLDDILQYQNEKFLQGTQADDLVSAIQQNANHFTELFCRAIDNNMPLPTKEIDYKDDVLDVILNQRRLRNERMLSDRTNEIRSENLMDTTMDPPSSMNDALREVVEDETELFPPNLTRRYFLYFKPLSQNCARRYRKKAISSKPLSVRQIKGDFLGQLITVRGIITRVSDVKPAVEVIAYTCDQCGYEVFQEVNSRTFTPLSECTSEECSQNQTKGQLFMSTRASKFSAFQECKIQELSQQVPVGHIPRSLNIHVNGTLVRSLSPGDIVDVTGIFLPAPYTGFKALKAGLLTETYLEAQFVRQHKKKFASFSLTSDVEERVMELITSGDVYNRLAKSIAPEIYGNLDVKKALLLLLVGGVDKRVGDGMKIRGDINVCLMGDPGVAKSQLLKAICKISPRGVYTTGKGSSGVGLTAAVMKDPVTDEMILEGGALVLADNGICCIDEFDKMDESDRTAIHEVMEQQTISISKAGINTTLNARTSILAAANPLYGRYNPRLSPLDNINLPAALLSRFDILFLMLDIPSRDDDEKLAEHVTYVHMHNKQPDLDFTPVEPSKMREYIAYAKTKRPVMSEAVNDYVVQAYIRLRQDSKREMDSKFSFGQATPRTLLGIIRLSQALAKLRLADMVDIDDVEEALRLVRVSKESLYQETNKSKEDESPTTKIFTIIKKMLQETGKNTLSYENIVKTVRLRGFTMLQLSNCIQEYSYLNVWHLINEGNTLKFVDDGTMDTDQEDSLVSTPKLAPQTTASANVSAQDSDIDLQDA
binding result [1]: binds | binding result [2]: binds
